US20240043527A1 (BioNTech SE, priority 2020, published 2024)

Legend:
[1] = test system: CLDN-18.2+ NUG-C4 transfectants; assay: Ex vivo ADCC assay with serum of dosed non-human primates; type: cell-based; settings: for ADCC target cell lysis: serum 24 hours and 168 hours post IV dosing of 0.1, 0.4, 1.6 mg/kg
Protocol: Non-Human Primates (NHP) received three repetitive doses of 0.1, 0.4 or 1.6 mg/kg RB_RMAB01 once weekly. RiboMab01-containing serum of all monkeys sampled 24 hours (black bars) and 168 hours (white bars) post 1st injection was directed to luciferase-based ex vivo ADCC assays. […] Human PBMCs from two different healthy donors (24 h, donor 1, 168 h, donor 2) served as effector cells. (Panel A) RiboMab01-mediated ADCC of NUG-C4 cells after 48 hours incubation is shown. (Panel B) Unspecific lysis on target-negative MDA-MB-231 cells is shown. Error bars are standard error of the mean (n=3). (Panel C) Serum of NHP No. 14 (1.6 mg/kg RB_RMAB01, RiboMab01 serum concentration 232 μg/mL) collected 48 hours after the 3rd dosing was used for a luciferase-based ex vivo ADCC assays. […] Human PBMCs of a healthy donor served as effector cells. […] Incubation time was 48 hours. Error bars are standard errors of the mean (n=3).
ADCC assays were performed as described in Example 2. […] Purified IMAB362 served as assay reference protein.

[2] = test system: CLDN-18.2+ NCI-N87 xenograft tumors; assay: CLDN-18.2+ human gastric carcinoma xenograft tumor model; type: in vivo, mice; settings: IV injections of 1-30 μg RB_RMAB01 on test days 15, 22, 29, 36, 43 and 50
Protocol: Median tumor growth of treatment and control groups is shown. Dotted lines indicate injections. Significance was calculated by Two-way ANOVA. Ns indicates not significant.

[3] = Repetitive dose PK study in mice (ELISA); type: in vivo, Balb/cJRj mice; settings: five weekly IV doses
Protocol: Balb/cJRj mice received IV injections of 1 μg (˜0.04 mg/kg), 3 μg (˜0.10 mg/kg), 10 μg (˜0.40 mg/kg) or 30 μg (˜1.20 mg/kg) RB_RMAB01 and 80 μg (˜3.20 mg/kg) IMAB362 reference protein at test days 1, 8, 15, 21 and 29. Plasma was sampled 24 hours pre- and 24 hours post-dosing. RiboMab01 concentrations in plasma measured via ELISA are shown. Dotted lines indicate injections. Error bars are standard errors of the mean (n=3).

[4] = Single dose PK study in mice (ELISA); type: in vivo, Balb/cJRj mice; settings: single IV dose
Protocol: Balb/cJRj mice received a single IV injection of 1 μg (0.040 mg/kg), 3 μg (˜0.10 mg/kg), 10 μg (˜0.40 mg/kg) or 30 μg (˜1.20 mg/kg) RB_RMAB01 drug product and […] IMAB362 reference protein. Plasma was sampled 6, 24, 96, 168, 264, 336 and 504 hours post administration. RiboMab01 concentrations in plasma measured via ELISA are shown. Error bars are standard errors of the mean (n=3).

[5] = cynomolgus monkey, in vivo
Protocol: Furthermore, immunotoxicity in vivo was assessed as part of the repeated-dose toxicity study in mice and a pharmacokinetic study in cynomolgus monkey. All studies were designed in accordance with the ICH S8 guideline (Immunotoxicity studies for human pharmaceuticals).

[6] = Repetitive dose PK study in NHP (ELISA); type: in vivo, Cynomolgus monkey
Protocol: NHP received IV injections of 0.1, 0.4 or 1.6 mg/kg RB_RMAB01 at test days 1, 8 and […] was sampled 6, 24, 48, 72, 96 and 168 hours post 1st and 3rd dosing and 48, 72 and 168 hours post 2nd dosing as well as 264, 336 and 504 hours post 3rd dosing. RiboMab01 concentrations in plasma measured via ELISA are shown. Error bars are standard errors of the mean (n=3).
FIG. 14 is a graph showing dose-exposure correlation of RB_RMAB01 in cynomolgus monkey at tmax. Cynomolgus monkeys (n=3) received IV injections of 0.1, 0.4 or 1.6 mg/kg RB_RMAB01. Dose-dependent RiboMab01 concentrations (mean, n=3) in plasma measured via ELISA at Cmax are depicted. A green line indicates a dose that can be administered to a human subject and its corresponding anticipated serum concentration.
Treatment groups received three IV bolus injections of either 0.1 mg/kg, 0.4 mg/kg or 1.6 mg/kg at weekly intervals. As controls, saline or empty LNPs were administered likewise. Serum was sampled 6, 24, 48, 72, 96 and 168 hours post 1st and 3rd dosing and 48, 72 and 168 hours post 2nd dosing as well as 264, 336 and 504 hours post 3rd dosing.

[7] = test system: CLDN-18.2+ CHO-K1 transfectants; assay: In vitro CDC assay (luciferase-based); type: cell-based; settings: human serum, 2 hours, control CLDN-18.2-negative CHO-K1
Protocol: (§1) RiboMab01-containing cell culture supernatant from CHO-K1 cells lipofected with RB_RMAB01 was subjected to (Panel A) ADCC and (Panel B) CDC assays. […] Human PBMCs of three different healthy donors were utilized as effector cells (E:T ratio 30:1). Target or control and effector cells were incubated for 48 hours with the indicated RiboMab01 and IMAB362 reference protein concentrations. Specific cell lysis as determined in a luciferase-based assay is shown. […] Target and control cells were incubated with human serum and RiboMab01 concentrations as indicated for 2 hours. CDC determined in a luciferase-based assay is shown. Error bars are standard errors of the mean (n=3).
(§2) Mode of action analysis: Antibody-dependent cellular cytotoxicity (ADCC) and complement-dependent cytotoxicity (CDC) in vitro. […] To simulate in vivo conditions, human PBMCs from three different healthy donors were used as effector cells in ADCC assays in an effector to target (E:T) ratio of 30:1 and human serum (e.g., commercially available human serum) was used as a source of complement in CDC assays.

[8] = test system: CLDN-18.2+ NUG-C4 transfectants; assay: In vitro ADCC assay (luciferase-based); type: cell-based, human; settings: for ADCC, cellular cytotoxicity: control cells MDA-MB-231, human PBMCs, E:T 30:1
Protocol: as §1, §2

With “CLDN-18.2-targeting RiboMab: CLDN-18.2-targeting IgG antibody (IMAB362 delivered as ribonucleic acid) expressed from mRNAs encoding heavy and light chain” the “ADCC target cell lysis” value [1] was “high and dose-dependent target cell lysis”, the “ADCC target cell lysis” value ([1]; listed as RiboMab01) was “dose-dependent ADCC” and the EC50 ([1]; serum of monkey No. 14 (1.6 mg/kg) 48 hours after 3rd dosing or recombinant reference protein, 48 hours incubation) was 66 pM. For the same substance, the “ADCC EC50” value ([1]; serum of monkey No. 14, 48 hours after 3rd injection, 10-point dilution row) was 0.01 µg/mL, the “tumor growth inhibition in vivo (FIG. 6)” value [2] was “tumor growth inhibition” and the “peak plasma concentration of RiboMab” value ([3]; 30 μg, 24 hours post-dosing) was ≤ 1000 µg/mL. The “RiboMab levels on weekly administration” value [3] was “Sustained CLDN-18.2-targeting RiboMab”, the “time RiboMab detectable post administration” value [4] was “up to 504 hours” and the “time RiboMab detectable post administration” value ([4]; listed as CLDN-18.2-targeting antibody agent) was “up to 504 hours post dosing”. For the same substance, the systemic side effects [5] was “no systemic side effects such as diarrhea were observed”, the “RiboMab serum concentration, highest determined” value ([6]; NHP No. 14, 1.6 mg/kg, 48 hours after the 3rd dosing) was 232 µg/mL and the “Cmax compared with IMAB362” value ([6]; between 48-72 hours post administration) was “notably lower Cmax than IMAB362”. The tmax ([6]; dose-exposure correlation in cynomolgus monkey, FIG. 14) was 48 h, the “peak serum concentration of RiboMab” value ([6]; highest dose 1.6 mg/kg, 48-72 hours post 3rd administration) was 231.7 µg/mL and the “time RiboMab detectable (termination of the study)” value ([6]; post 1st dosing) was 840 h. The “expression on weekly administration” value ([6]; three weekly IV doses) was “sustainable”, the “CDC, cellular cytotoxicity” value [7] was “target specific and dose-dependent cellular cytotoxicity comparable to the reference protein IMAB362” and the “CDC, cellular cytotoxicity” value ([7]; listed as RiboMab01) was “high target specific cell cytotoxicity”. For the same substance, the “ADCC, cellular cytotoxicity” value [8] was “target specific and dose-dependent cellular cytotoxicity comparable to the reference protein IMAB362”, the “ADCC, cellular cytotoxicity” value ([8]; listed as RiboMab01) was “high target specific cell cytotoxicity” and the “ADCC EC50” value ([8]; human PBMCs from three donors, E:T 30:1, 48 hours) was 0.01 to 0.127 µg/mL.
